From patent publication US20230045873A1 (ONCOONE RESEARCH AND DEVELOPMENT, published 2023)

Target: T1, oxMIF (recombinant human MIF immobilized into microwell plates, transforming MIF to oxMIF) (human, UniProt P14174 2-115)
T1 construct: also called immobilized MIF (oxMIF); immobilized oxMIF
Test: ELISA on immobilized MIF (oxMIF), protein L-HRP detection, mean of triplicate
Method: Recombinant human MIF (1 μg/ml) diluted in PBS was immobilized into microwell plates (transforming MIF to oxMIF according to Thiele M. et al., 2015, J Immunol 2015; 195:2343-2352). After blocking, the bispecific antibodies were added to the plates at different concentrations. Bound bispecific antibodies were detected using protein L-HRP conjugate. Plates were developed by adding 3 3′5 5′tetramethylbenzidine (TMB) and chromogenic reaction was stopped with […]. OD was measured at 450 nm.
The binding curves of anti-oxMIF/CD3 bispecific antibodies C0061 and C0062 binding towards immobilized MIF (oxMIF) in an ELISA are depicted in FIG. 4. The monospecific anti-oxMIF antibody C0008 was used as positive control for oxMIF binding. EC50 values of the binding curves, which reflect rough KD estimates, were calculated by 4-parameter fit.

T1 sequence (P14174 2-115 limits assumed): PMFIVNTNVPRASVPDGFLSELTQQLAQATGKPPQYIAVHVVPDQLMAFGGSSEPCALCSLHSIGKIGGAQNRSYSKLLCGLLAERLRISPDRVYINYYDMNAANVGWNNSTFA

B1: C0061 (Anti-oxMIF Fab and anti-oxMIF/anti-CD3 BiTE fused to Fc; Fab-BiTE-Fc) (bispecific antibody, human IgG1, kappa)
heavy: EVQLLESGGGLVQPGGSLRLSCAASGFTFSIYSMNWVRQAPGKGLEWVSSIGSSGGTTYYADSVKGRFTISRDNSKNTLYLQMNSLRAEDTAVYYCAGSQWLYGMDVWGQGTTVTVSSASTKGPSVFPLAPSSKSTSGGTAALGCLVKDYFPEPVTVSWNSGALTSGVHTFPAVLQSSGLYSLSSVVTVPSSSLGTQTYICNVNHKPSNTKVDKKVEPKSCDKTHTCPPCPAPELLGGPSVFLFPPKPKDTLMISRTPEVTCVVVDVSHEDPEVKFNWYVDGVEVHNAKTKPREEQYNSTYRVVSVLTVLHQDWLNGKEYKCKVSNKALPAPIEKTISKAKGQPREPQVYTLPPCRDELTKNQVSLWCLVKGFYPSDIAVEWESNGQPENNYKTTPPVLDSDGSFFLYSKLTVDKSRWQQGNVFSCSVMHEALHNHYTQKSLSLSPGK
chain: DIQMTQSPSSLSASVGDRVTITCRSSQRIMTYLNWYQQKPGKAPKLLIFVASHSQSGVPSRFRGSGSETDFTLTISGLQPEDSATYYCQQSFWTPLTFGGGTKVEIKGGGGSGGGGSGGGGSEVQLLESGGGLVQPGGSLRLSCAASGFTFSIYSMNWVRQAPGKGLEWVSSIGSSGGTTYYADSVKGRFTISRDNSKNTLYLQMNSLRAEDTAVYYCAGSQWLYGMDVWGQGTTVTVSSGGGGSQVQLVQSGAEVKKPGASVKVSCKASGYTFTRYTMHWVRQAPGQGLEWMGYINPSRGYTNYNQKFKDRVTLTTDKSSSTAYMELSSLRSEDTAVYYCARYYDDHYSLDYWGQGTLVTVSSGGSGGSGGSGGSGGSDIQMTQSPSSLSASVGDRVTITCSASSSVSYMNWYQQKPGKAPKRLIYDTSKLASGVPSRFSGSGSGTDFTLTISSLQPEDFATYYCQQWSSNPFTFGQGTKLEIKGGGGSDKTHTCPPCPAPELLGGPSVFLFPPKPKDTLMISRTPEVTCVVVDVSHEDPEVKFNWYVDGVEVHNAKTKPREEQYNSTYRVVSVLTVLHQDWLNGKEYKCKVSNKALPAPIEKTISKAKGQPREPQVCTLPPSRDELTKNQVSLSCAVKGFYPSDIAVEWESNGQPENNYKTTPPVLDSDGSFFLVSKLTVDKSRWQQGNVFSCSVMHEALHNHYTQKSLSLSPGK
light: DIQMTQSPSSLSASVGDRVTITCRSSQRIMTYLNWYQQKPGKAPKLLIFVASHSQSGVPSRFRGSGSETDFTLTISGLQPEDSATYYCQQSFWTPLTFGGGTKVEIKRTVAAPSVFIFPPSDEQLKSGTASVVCLLNNFYPREAKVQWKVDNALQSGNSQESVTEQDSKDSTYSLSSTLTLSKADYEKHKVYACEVTHQGLSSPVTKSFNRGEC
notes: Three polypeptides; bivalent for oxMIF, monovalent for CD3
EC50: 900 pM
